Source: article PMC3972135, “Identification and Characterization of MT-1X as a Novel FHL3-Binding Partner” (PLoS ONE, 2014)

Biological target: T1, GST-FHL3 (human, UniProt Q13643 1-280)
T1 construct: Four and a half LIM domain protein 3 (FHL3), human, full length cDNA amplified from pBV220/FHL3, in pGEX-4T-1; also called GST–FHL3 fusion protein; source: E. coli DH5α, purified (GSTrap FF column)
T1 sequence (looked up): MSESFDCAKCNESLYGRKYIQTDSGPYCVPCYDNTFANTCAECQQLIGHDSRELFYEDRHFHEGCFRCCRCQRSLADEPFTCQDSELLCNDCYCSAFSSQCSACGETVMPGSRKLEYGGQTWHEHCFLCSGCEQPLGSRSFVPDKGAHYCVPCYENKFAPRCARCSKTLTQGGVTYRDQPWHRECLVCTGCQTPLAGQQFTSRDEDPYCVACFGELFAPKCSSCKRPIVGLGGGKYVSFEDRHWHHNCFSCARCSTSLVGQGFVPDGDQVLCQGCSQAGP
Test: pull-down; purified GST-FHL3 or GST on Glutathione Agarose, His-MT-1X from in vitro translation added, 4°C overnight; Western blot with anti-His
Conditions: both partners purified

binding result: binds
B1: His-MT-1X (natural protein)
chain: not shown
notes: MT-1X (metallothionein-1X), human; cDNA amplified by PCR from pACT2/MT-1X (the full length clone); also called pT7/MT-1X; source: in vitro translated (pT7CFE1-CHis)
